# T1: mouse LY6A (mouse, UniProt P05533 27-112)
# T1 construct: whole, on cells; Over-expressed on HEK293T cells
# T1 sequence: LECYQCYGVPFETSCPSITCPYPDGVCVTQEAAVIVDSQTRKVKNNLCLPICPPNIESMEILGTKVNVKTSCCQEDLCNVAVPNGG
# Biological target: T1, mouse LY6A
# Test: AAV binding to LY6A-transfected HEK293T cells on ice; bound viral genomes counted by qPCR
row,Binder,binding result
1,"AAV.CPP.16 (other, Tested as a whole recombinant AAV particle (rAAV-mCherry); also called Bip2.1 insert TVSALK) MAADGYLPDWLEDNLSEGIREWWALKPGAPQPKANQQHQDNARGLVLPGYKYLGPGNGLDKGEPVNAADAAALEHDKAYDQQLKAGDNPYLKYNHADAEFQERLKEDTSFGGNLGRAVFQAKKRLLEPLGLVEEAAKTAPGKKRPVEQSPQEPDSSAGIGKSGAQPAKKRLNFGQTGDTESVPDPQPIGEPPAAPSGVGSLTMASGGGAPVADNNEGADGVGSSSGNWHCDSQWLGDRVITTSTRTWALPTYNNHLYKQISNSTSGGSSNDNAYFGYSTPWGYFDFNRFHCHFSPRDWQRLINNNWGFRPKRLNFKLFNIQVKEVTDNNGVKTIANNLTSTVQVFTDSDYQLPYVLGSAHEGCLPPFPADVFMIPQYGYLTLNDGSQAVGRSSFYCLEYFPSQMLRTGNNFQFSYEFENVPFHSSYAHSQSLDRLMNPLIDQYLYYLSKTINGSGQNQQTLKFSVAGPSNMAVQGRNYIPGPSYRQQRVSTTVTQNNNSEFAWPGASSWALNGRNSLMNPGPAMASHKEGEDRFFPLSGSLIFGKQGTGRDNVDADKVMITNEEEIKTTNPVATESYGQVATNHQSAQTVSALKAQAQTGWVQNQGILPGMVWQDRDVYLQGPIWAKIPHTDGNFHPSPLMGGFGMKHPPPQILIKNTPVPADPPTAFNKDKLNSFITQYSTGQVSVEIEWELQKENSKRWNPEIQYTSNYYKSNNVEFAVNTEGVYSEPRPIGTRYLTRNL",no binding (tested: MOI of 10000)
2,"AAV.CPP.21 (other, Tested as a whole recombinant AAV particle (rAAV-mCherry); also called Bip2.6 insert TVSALFK) MAADGYLPDWLEDNLSEGIREWWALKPGAPQPKANQQHQDNARGLVLPGYKYLGPGNGLDKGEPVNAADAAALEHDKAYDQQLKAGDNPYLKYNHADAEFQERLKEDTSFGGNLGRAVFQAKKRLLEPLGLVEEAAKTAPGKKRPVEQSPQEPDSSAGIGKSGAQPAKKRLNFGQTGDTESVPDPQPIGEPPAAPSGVGSLTMASGGGAPVADNNEGADGVGSSSGNWHCDSQWLGDRVITTSTRTWALPTYNNHLYKQISNSTSGGSSNDNAYFGYSTPWGYFDFNRFHCHFSPRDWQRLINNNWGFRPKRLNFKLFNIQVKEVTDNNGVKTIANNLTSTVQVFTDSDYQLPYVLGSAHEGCLPPFPADVFMIPQYGYLTLNDGSQAVGRSSFYCLEYFPSQMLRTGNNFQFSYEFENVPFHSSYAHSQSLDRLMNPLIDQYLYYLSKTINGSGQNQQTLKFSVAGPSNMAVQGRNYIPGPSYRQQRVSTTVTQNNNSEFAWPGASSWALNGRNSLMNPGPAMASHKEGEDRFFPLSGSLIFGKQGTGRDNVDADKVMITNEEEIKTTNPVATESYGQVATNHQSAQTVSALFKAQAQTGWVQNQGILPGMVWQDRDVYLQGPIWAKIPHTDGNFHPSPLMGGFGMKHPPPQILIKNTPVPADPPTAFNKDKLNSFITQYSTGQVSVEIEWELQKENSKRWNPEIQYTSNYYKSNNVEFAVNTEGVYSEPRPIGTRYLTRNL",no binding (tested: MOI of 10000)
